Results taken from US5891697A, “Monoterpene synthases from common sage (Salvia officinalis)” (Washington State University Research Foundation, priority 1997, dated 1999).

Key:
[1] = target: T1, native (+)-bornyl diphosphate synthase from sage (Salvia officinalis) (Salvia officinalis, UniProt O81192); conditions: read-out: Km (geranyl diphosphate), literature value; native enzyme; Croteau et al. 1989, 1990; cited from earlier work
T1 construct: for the corresponding native enzymes

[2] = target: native 1,8-cineole synthase from sage (Salvia officinalis) (Salvia officinalis, UniProt O81191); conditions: read-out: Km (geranyl diphosphate), literature value; native enzyme; Croteau et al., Arch. Biochem. Biophys. 309:184-192, 1994; cited from earlier work
[3] = substrate: CC(C)=CCC/C(C)=C/COP(=O)(O)OP(=O)(O)O; experiment: cells, lysate or membranes named; conditions: other: recombinant SCS; 0.45 to 45 μM [1-3H]geranyl diphosphate, saturating divalent metal ion; likely somewhat high (contaminating phosphatases); pH 6.0; 31.0 °C
[4] = target: the molecule itself; experiment: calibrated gel permeation chromatography (Superdex S-200); single peak of activity at Mr ~200,000; self-association (homodimer)
[5] = target: the molecule itself; experiment: gel permeation re-chromatography after thrombin removal of the GST tag; self-association (homodimer)

For `CC(C)=CCC/C(C)=C/COP(=O)(O)OP(=O)(O)O` [geranyl diphosphate], the Km [1] is given as 2 µM and the Km [2] is given as 1.1 µM.

B1: Salvia officinalis 1,8-cineole synthase (SCS), recombinant, clone 3B5, SEQ ID No:4 (Salvia officinalis) (protein)
chain: RRTGGYQPTLWDFSTIQLFDSEYKEEKHLMRAAGMIAQVNMLLQEEVDSIQRLELIDDLRRLGISCHFDREIVEILNSKYYTNNEIDESDLYSTALRFKLLRQYDFSVSQEVFDCFKNDKGTDFKPSLVDDTRGLLQLYEASFLSAQGEETLHLARDFATKFLHKRVLVDKDINLLSSIERALELPTHWRVQMPNARSFIDAYKRRPDMNPTVLELAKLDFNMVQAQFQQELKEASRWWNSTGLVHELPFVRDRIVECYYWTTGVVERREHGYERIMLTKINALVTTIDDVFDIYGTLEELQLFTTAIQRWDIESMKQLPPYMQICYLALFNFVNEMAYDTLRDKGFNSTPYLRKAWVDLVESYLIEAKWYYMGHKPSLEEYMKNSWISIGGIPILSHLFFRLTDSIEEEDAESMHKYHDIVRASCTILRLADDMGTSLDEVERGDVPKSVQCYMNEKNASEEEAREHVRSLIDQTWKMMNKEMMTSSFSKYFVQVSANLARMAQWIYQHESDGFGMQHSLVNKMLRGLLFDRYE
With B1 the Km [3] was 7.0 µM.

B2: pGEX fusion form of SBS (glutathione-S-transferase fusion of the sage (+)-bornyl diphosphate synthase preprotein) (enzyme)
chain: MSIISMNVSILSKPLNCLHNLERRPSKALLVPCTAPTARLRASCSSKLQEAHQIRRSGNYQPALWDSNYIQSLNTPYTEERHLDRKAELIVQVRILLKEKMEPVQQLELIHDLKYLGLSDFFQDEIKEILGVIYNEHKCFHNNEVEKMDLYFTALGFRLLRQHGFNISQDVFNCFKNEKGIDFKASLAQDTKGMLQLYEASFLLRKGEDTLELAREFATKCLQKKLDEGGNEIDENLLLWIRHSLDLPLHWRIQSVEARWFIDAYARRPDMNPLIFELAKLNFNIIQATHQQELKDLSRWWSRLCFPEKLPFVRDRLVESFFWAVGMFEPHQHGYQRKMAATIIVLATVIDDIYDVYGTLDELELFTDTFKRWDTESITRLPYYMQLCYWGVHNYISDAAYDILKEHGFFCLQYLRKSVVDLVEAYFHEAKWYHSGYTPSLDEYLNIAKISVASPAIISPTYFTFANASHDTAVIDSLYQYHDILCLAGIILRLPDDLGTSYFELARGDVPKTIQCYMKETNASEEEAVEHVKFLIREAWKDMNTAIAAGYPFPDGMVAGAANIGRVAQFIYLHGDGFGVQHSKTYEHIAGLLFEPYA
B2: binds [4].

B3: SBS protein after thrombin removal of the glutathione-S-transferase fusion tag ((+)-bornyl diphosphate synthase preprotein) (enzyme)
chain: MSIISMNVSILSKPLNCLHNLERRPSKALLVPCTAPTARLRASCSSKLQEAHQIRRSGNYQPALWDSNYIQSLNTPYTEERHLDRKAELIVQVRILLKEKMEPVQQLELIHDLKYLGLSDFFQDEIKEILGVIYNEHKCFHNNEVEKMDLYFTALGFRLLRQHGFNISQDVFNCFKNEKGIDFKASLAQDTKGMLQLYEASFLLRKGEDTLELAREFATKCLQKKLDEGGNEIDENLLLWIRHSLDLPLHWRIQSVEARWFIDAYARRPDMNPLIFELAKLNFNIIQATHQQELKDLSRWWSRLCFPEKLPFVRDRLVESFFWAVGMFEPHQHGYQRKMAATIIVLATVIDDIYDVYGTLDELELFTDTFKRWDTESITRLPYYMQLCYWGVHNYISDAAYDILKEHGFFCLQYLRKSVVDLVEAYFHEAKWYHSGYTPSLDEYLNIAKISVASPAIISPTYFTFANASHDTAVIDSLYQYHDILCLAGIILRLPDDLGTSYFELARGDVPKTIQCYMKETNASEEEAVEHVKFLIREAWKDMNTAIAAGYPFPDGMVAGAANIGRVAQFIYLHGDGFGVQHSKTYEHIAGLLFEPYA
B3: binds [5].
